Source: publication PMC3448684, “IP-FCM Measures Physiologic Protein-Protein Interactions Modulated by Signal Transduction and Small-Molecule Drug Inhibition” (PLoS ONE, 2012)

Legend:
[1] = target: recombinant human CD25-Fc chimera (human) (UniProt P01589); assay: IP-FCM (capture on antibody beads, detection by flow cytometry); CD25-Fc captured on anti-CD25 CML beads overnight, washed; IL-2 (1,000 U/ml) added for 1 h with or without Ro-26-4550 or control compounds; washed, probed with anti-IL-2
Chain of recombinant human CD25-Fc chimera (human) (P01589 22-240, stated change not applied): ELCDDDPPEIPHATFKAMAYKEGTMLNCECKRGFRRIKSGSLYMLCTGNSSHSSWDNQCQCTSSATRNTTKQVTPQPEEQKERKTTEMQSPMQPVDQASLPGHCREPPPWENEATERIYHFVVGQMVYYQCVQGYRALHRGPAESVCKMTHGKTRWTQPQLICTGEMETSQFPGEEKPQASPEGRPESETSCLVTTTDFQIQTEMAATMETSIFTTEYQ

[2] = target: recombinant human CD25-Fc chimera (human) (UniProt P01589); assay: IP-FCM (capture on antibody beads, detection by flow cytometry); data not shown: as a4 with recombinant CD25, but 500 U/ml or 10,000 U/ml IL-2
IL-2 = target: T1, IL-2 (Homo sapiens, UniProt P60568, C145S); assay: IP-FCM bead assay of the IL-2:CD25 interaction with recombinant proteins (also with endogenous CD25 captured from PBMC lysate); format: biochemical
T1 construct: gene IL2; recombinant human IL-2 (Proleukin); with CD25 (IL-2 receptor α-chain; recombinant human CD25-Fc chimera, or endogenous CD25 from PBMC lysate)

Chain of recombinant human IL-2 (Proleukin) (P60568 21-153): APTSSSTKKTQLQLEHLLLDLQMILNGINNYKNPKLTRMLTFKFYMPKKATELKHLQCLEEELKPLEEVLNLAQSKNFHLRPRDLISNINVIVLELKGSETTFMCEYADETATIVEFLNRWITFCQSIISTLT

percent reduction of binding with Ro-26-4550 (10 mM [sic]), 1,000 U/ml IL-2 [1] | percent reduction of binding with Ro-26-4550, 10,000 U/ml IL-2 [2] | Substance | % reduction of IL-2:CD25 binding at 10 μM (Methods; printed as 10 mM in Results) (IL-2)
62% | 44% | recombinant human IL-2 (Proleukin) (from UniProt P60568 21-153) (ligand) | 
 |  | Ro-26-4550 [R26] | 62 % reduction of IL-2:CD25 binding at 10 µM (Methods; printed as 10 mM in Results)
